Source: patent US20220112288A1 (published 2022)

Each binder was assayed against T1, Rhesus macaque CD4-HIS (Acro Biosystems, Cat. CD4-C52H7) (rhesus macaque, UniProt P16003 26-390) (assay: BLI (Octet Red384); Ab on anti-mouse Fc (AMC) sensor; rhesus CD4-HIS 100/50/25 nM; global 1:1 fit;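 note: antibodies loaded at 10 µg/mL, an unrelated mouse-derived antibody served as internal reference, curves fit over association and dissociation phases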).
T1 construct: Bought reagent; also called Rhesus CD4; rhesus CD4-HIS; not shown: His tag
T1 sequence (P16003 26-390 limits assumed): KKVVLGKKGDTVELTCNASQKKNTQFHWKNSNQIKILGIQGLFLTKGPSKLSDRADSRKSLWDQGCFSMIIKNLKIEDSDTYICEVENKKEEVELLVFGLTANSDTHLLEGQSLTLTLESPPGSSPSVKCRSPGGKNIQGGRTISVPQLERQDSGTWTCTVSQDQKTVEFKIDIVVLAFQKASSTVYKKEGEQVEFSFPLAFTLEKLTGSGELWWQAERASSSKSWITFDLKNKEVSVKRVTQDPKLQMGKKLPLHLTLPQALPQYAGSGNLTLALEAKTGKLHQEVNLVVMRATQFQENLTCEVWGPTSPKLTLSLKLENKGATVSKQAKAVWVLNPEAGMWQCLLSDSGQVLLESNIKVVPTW

Kd | Response | koff | kon | Binder
16 nM | 0.1 | 0.0038 s⁻¹ | 240000 M⁻¹ s⁻¹ | 75110_12C19A (antibody, V domains shown, Tested as antibody purified from AlivaMab Mouse hybridoma supernatant (human variable domains, kappa; mouse Fc, captured on anti-mouse IgG Fc sensors); also called ADS75110 purified AMM Ab) VH: EVQLVESGGGLVQPGGSLRLSCAASGFTFSSYWMSWVRQAPGKGLEWVANIKEDGSDKYYVDSVKGRFTISRDNAKNSLYLQMNSLRAEDTAVHYCVREGGQWLALDYWGQGTLVTVSS VL: DIQMTQSPSSVSGSVGDRVTITCRASQGISSWLAWYQQKPGKAPKLLIYGASSLQSGVPSRFSGSGSGTDFTLTISSLQPEDFVTYYCQQANSFPWTFGQGTKVEIK
36 nM | 0.27 | 0.003 s⁻¹ | 84000 M⁻¹ s⁻¹ | 75110_09G15A (antibody, V domains shown, Tested as antibody purified from AlivaMab Mouse hybridoma supernatant (human variable domains, kappa; mouse Fc, captured on anti-mouse IgG Fc sensors); also called ADS75110 purified AMM Ab) VH: EVQLVESGGGLVQPGGSLRLSCAASGFTFSDYWMSWVRQAPGKGLEWVANINQDGSEKYSVDSVKGRFTISRDNAKNSLYLQMNSLRAEDTAIFYCAREGGQWLALDYWGQGTLVTVSS VL: DIQMTQSPSSVSASVGDRVTITCRASQGISSWLAWYQQKPGKAPKLLIYGASSLQSGVPSRFSGSGSGTDFTLTINSLQPEDFTTYYCQQANIFPWTFGQGTKVEIK
44 nM | 0.14 | 0.004 s⁻¹ | 92000 M⁻¹ s⁻¹ | 75110_09N20A (antibody, V domains shown, Tested as antibody purified from AlivaMab Mouse hybridoma supernatant (human variable domains, kappa; mouse Fc, captured on anti-mouse IgG Fc sensors); also called ADS75110 purified AMM Ab) VH: EVQLVESGGGLVQPGGSLRLSCAASGFTFSSYWMSWVRQAPGKGLEWVANINEDGSEKYYVDSVKGRFTISRDNAKNSLYLQMNSLRAEDTAVYYCVREGGQWLALDYWGQGTLVTVSS VL: DIQMTQSPSSVSASVGDRVTITCRASQGISSWLAWYQQKPGKAPKLLIYAASSLQSGVPSSFSGSGSGTDFTLTINSLQPEDFATYYCQQANSFPWTFGQGTKVAIK
8.3 nM | 0.09 | 0.0046 s⁻¹ | 550000 M⁻¹ s⁻¹ | 75110_13C13A (antibody, V domains shown, Tested as antibody purified from AlivaMab Mouse hybridoma supernatant (human variable domains, kappa; mouse Fc, captured on anti-mouse IgG Fc sensors); also called ADS75110 purified AMM Ab) VH: QVQLQQWGAGLLKPSETLSLTCAVSGGSFSGYYWSWIRQPPGKGLEWIGEINHSGSTNCNPSLKSRVTISVDTSKNQFSLKLSSVTAADTAMYYCARVLNFFDYWGQGTLVTVSS VL: DIQMTQTPSSVSASVGDRVTITCRASPGISNWLAWYQQKPGKAPELLIYAASSLQSGVPSRFSGSGSGTDFTLTISSLQPEDFATYFCQQANSFPLTFGGGTKVESK
32 nM | 0.15 | 0.003 s⁻¹ | 94000 M⁻¹ s⁻¹ | 75110_07H07A (antibody, V domains shown, Tested as antibody purified from AlivaMab Mouse hybridoma supernatant (human variable domains, kappa; mouse Fc, captured on anti-mouse IgG Fc sensors); also called ADS75110 purified AMM Ab) VH: EVQVVESGGGLVQPGGSLRLSCAASGFTFSSYWMSWVRQAPGKGLEWVANIKEEGSEKYYVDSVKGRFTISRDNAKNSLYLQMNSLRAEDTAVYYCVREGGQWLALDYWGQGTLVTVSS VL: DIQMTQSPSSVSGSVGDRVTITCRASQGISSWLAWYQQKPGKAPKLLIFGASSLQSGVPSRFSGSGSGTDFTLTISSLQPEDFATYYCQQANSFPWTFGQGTKVQIK
22 nM | 0.23 | 0.0032 s⁻¹ | 150000 M⁻¹ s⁻¹ | 75110_12H17A (antibody, V domains shown, Tested as antibody purified from AlivaMab Mouse hybridoma supernatant (human variable domains, kappa; mouse Fc, captured on anti-mouse IgG Fc sensors); also called ADS75110 purified AMM Ab) VH: EVQLVESGGGLVQPGGSLRLSCAASGFTFSDYWMSWVRQAPGKGLEWVANIKEDGNEKYYVDSVKGRFTISRDNAKNSLFLQMNSLRAEDTAVYYCAREGGQWLALDYWGQGALVTVSS VL: DIQMTQSPSSVSASVGDRVTITCRASQGISSWLAWYQQKPGKAPKFLISGASSLQSGVPSRFTGSGSGTDFTLTISSLQPEDFATYYCQQANSFPWTFGQGTKVEIK
14 nM | 0.28 | 0.0026 s⁻¹ | 190000 M⁻¹ s⁻¹ | 75110_12H19A (antibody, V domains shown, Tested as antibody purified from AlivaMab Mouse hybridoma supernatant (human variable domains, kappa; mouse Fc, captured on anti-mouse IgG Fc sensors); also called ADS75110 purified AMM Ab) VH: EVQLVESGGGLVQPGGSLRLSCAASGFTFSSYWMSWVRQAPGQGLEWVANINEDGNEKYHVDSVKGRLTISRDNAKNSLYLQMNSLRGVDTAVYFCAREGGQWLALDYWGQGALVTVSS VL: DIQMTQSPSSVSASVGDRVSITCRASQGISSWLAWYQQKPGKAPKLLIYGASGLQSGVPSRFSGSGSGTDFTLTISSLQPEDFATYYCQQANSFPWTFGQGTKVEIK
2.6 nM | 0.02 | 0.00042 s⁻¹ | 160000 M⁻¹ s⁻¹ | 75110_07E04A (antibody, V domains shown, Tested as antibody purified from AlivaMab Mouse hybridoma supernatant (human variable domains, kappa; mouse Fc, captured on anti-mouse IgG Fc sensors); also called ADS75110 purified AMM Ab) VH: EVQLVESGGGLVQPGGSLRLSCAVSGFTFSSYDMHWVRQATGKGLEWVSTIGTAGDTYYPGSVKGRFTISRENAKKFLYLQMNSLRAGDTAVYYCARGGYYYYGMDVWGQGTTVTVSS VL: not shown
3.9 nM | 0.05 | 0.00085 s⁻¹ | 220000 M⁻¹ s⁻¹ | 75110_13C07A (antibody, V domains shown, Tested as antibody purified from AlivaMab Mouse hybridoma supernatant (human variable domains, kappa; mouse Fc, captured on anti-mouse IgG Fc sensors); also called ADS75110 purified AMM Ab) VH: EVQLVESGGVLVQPGGSLRLSCAASGFTFSNYDMHWVRQATGKGLEWVSTIGTAGDTYYPGSVKGRFTLSRENAKNSLYLQMHSLRAGDTAVYYCARGAYGYYGMDVWGQGTTVTVSS VL: not shown
8.2 nM | 0.07 | 0.001 s⁻¹ | 130000 M⁻¹ s⁻¹ | 75110_10N21A (antibody, V domains shown, Tested as antibody purified from AlivaMab Mouse hybridoma supernatant (human variable domains, kappa; mouse Fc, captured on anti-mouse IgG Fc sensors); also called ADS75110 purified AMM Ab) VH: EVQLVESGGGLVQPGGSLRLSCAASGFTFSSYDMHWVRQVTGKGLEWVSTIGTAGDTYYPGSVKGRFTISRENAKNSLYLQMNSLRAGDTAVYYCARGGYYYYGMDVWGQGTTVTVSS VL: EIVLTQSPGTLSLSPGERATLSCRASQSFISSYLAWYQQKPGQAPRLLIYGASSRATGIPDRFSGSGSGTDFTLTISRLDPEDFAVYYCQQSGNSPFTFGPGTKVDVK
